Measurements: US20220003777A1

Target: C1 esterase inhibitor, human plasma-derived (human) (UniProt P05155)
Assay: Western blot of serially diluted C11NH/BSA probed with 20 µg/mL StcE E447D

Sequence of C1 esterase inhibitor, human plasma-derived (human) (P05155 23-500 limits assumed): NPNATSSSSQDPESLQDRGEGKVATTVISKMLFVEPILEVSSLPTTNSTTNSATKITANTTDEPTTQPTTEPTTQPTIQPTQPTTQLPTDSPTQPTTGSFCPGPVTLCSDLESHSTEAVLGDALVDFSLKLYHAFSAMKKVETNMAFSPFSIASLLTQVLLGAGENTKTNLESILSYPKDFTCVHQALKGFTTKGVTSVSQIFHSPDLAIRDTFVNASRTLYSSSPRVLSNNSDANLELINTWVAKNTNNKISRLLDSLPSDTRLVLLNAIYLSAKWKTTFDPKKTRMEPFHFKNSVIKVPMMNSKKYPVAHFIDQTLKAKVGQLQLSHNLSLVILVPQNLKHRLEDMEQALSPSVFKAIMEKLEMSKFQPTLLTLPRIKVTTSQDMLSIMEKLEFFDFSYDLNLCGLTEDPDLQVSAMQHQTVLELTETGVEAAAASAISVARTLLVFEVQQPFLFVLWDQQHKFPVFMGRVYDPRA

## StcE E447D, catalytically inactive point mutant of StcE, N-terminal His-tagged (from UniProt O82882 36-898) (enzyme; other documents disagree on this pair)
  lowest amount of C11NH with visible signal: 0.03 µg
